The values below come from the supplement of paper PMC12042874.

The nature of the series: amyloid nucleation score (Sup35N fusion, yeast selection) (log enrichment); library NNK2; higher = more nucleation; inactive = no reads after selection. In short, it runs like this:
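Random libraries were run with three technical output replicates. In each, psi-negative yeast expressing Sup35N fused to peptides of 20 random codons were induced 24 hours with 100 μM copper sulfate and grown 7 days at 30°C on medium lacking adenine and uracil, and input and output plasmid inserts were Illumina-sequenced. The nucleation score is the DiMSum log enrichment of output over input reads, centred on the mode score of non-aggregating sequences, and sequences under 100 input reads were excluded.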

± gives the uncertainty stated by the source.

As to VPLCDVYWA, the amyloid nucleation score was -0.902 ± 0.61.

VSLHKRPTWLPVCIARYGWS came in with an amyloid nucleation score of 0.333 ± 0.24.

In turn, LSLFHPCLL had an amyloid nucleation score of -0.182 ± 0.3.

AFSMCSDRWIWLSCLNVEFV yielded an amyloid nucleation score of 9.677 ± 0.048.

LSSPLNLQHVFPLTWMYLC had an amyloid nucleation score of -0.742 ± 1.1.

In turn, GRLRDCRDEHNSNPTLRFTS came in with an amyloid nucleation score of 0.449 ± 0.16.

ALILAVLPSKDPIRVCWYSG: the amyloid nucleation score is 0.04 ± 0.33.

FMRFARMCS came in with an amyloid nucleation score of 0.256 ± 0.16.

Take LCGSRKRCGEMLRRKLGKYV: the amyloid nucleation score was 0.602 ± 0.81.

The substance NVGTRWSGDARNMFSSKGGK showed an amyloid nucleation score of 0.83 ± 0.31.

In turn, LLIRYSGFFCAPALTIPCGS registered an amyloid nucleation score of 5.12 ± 0.078.

DNTELFKNDFKFKLYLSNKI showed an amyloid nucleation score of 1.72 ± 0.24.

In turn, CLKGKYESYNADVNAHYSLA yielded an amyloid nucleation score of 0.13 ± 0.45.

RMVTVAS: the amyloid nucleation score worked out at 1.68 ± 0.32.

For the substance TDIKNRHILSNPWIRLYFLI, the amyloid nucleation score is -1.16 ± 0.62.

QPGSLMGNRPKESVRASRAR came in with an amyloid nucleation score of -0.104 ± 0.45.

With IGGLISLGISSIERGYSSLI, the amyloid nucleation score result is “inactive”.

ITKNHSVDDRCTMMYFYLCV gave an amyloid nucleation score of 3.76 ± 0.093.

The substance FHLLVVNFDTSLPLRQWKLE showed an amyloid nucleation score of 0.059 ± 0.3.

As for SSMIMTGFLYTYYGVIRVVD, the amyloid nucleation score result was “inactive”.

The substance KTTSISLAVEGYLVGISLIP displayed an amyloid nucleation score of 7.26 ± 0.078.

For the substance RGTAIKILYL, the amyloid nucleation score is 5.46 ± 0.069.

In turn, HHVEGMGYFLS returned an amyloid nucleation score of 0.175 ± 0.25.

For the substance VKQWT, the amyloid nucleation score is 1.74 ± 0.24.

In turn, TNGCALRSLNWLIVS showed an amyloid nucleation score of -0.44 ± 0.31.

In turn, FDTRITMMCALWTFPAT returned an amyloid nucleation score of 7.15 ± 0.079.

Consider LPYHCNWHMLSYLTCGYCS, for which the amyloid nucleation score worked out at 0.711 ± 0.6.

As to ILVTAYTFTMVRSDEGCRKV, the amyloid nucleation score turned out to be 3.63 ± 0.085.

In turn, KSVRGPCSYIFKYSCY yielded an amyloid nucleation score of 2.59 ± 0.22.

Turning to RDIMR, the amyloid nucleation score came out at 0.57 ± 0.5.

On to VFTVLYALSCLSFIFVTV, for which the amyloid nucleation score was determined as 4.04 ± 0.047.

Consider KIFNSSSFFQL, for which the amyloid nucleation score turned out to be 0.098 ± 0.65.

ANRKRVK: the amyloid nucleation score stood at 0.223 ± 0.61.

As to WHSHMYNWWEQ, the amyloid nucleation score stood at 1.09 ± 0.28.

SSGFQNSSTNGTDAQS: the amyloid nucleation score stood at 0.101 ± 0.76.

VWVKVLYYSRDICTLWSPGW: the amyloid nucleation score was -0.059 ± 0.5.

In turn, VFMFMTQVSRKSYALPRTAA returned an amyloid nucleation score of 3.02 ± 0.12.

On to HFKSSKECSKWVGICREEGR, for which the amyloid nucleation score was found to be 0.338 ± 0.46.

In the case of NQAYR, the amyloid nucleation score is 0.12 ± 0.43.

RVLKFFYGLTRVVS displayed an amyloid nucleation score of 1.23 ± 0.12.

VGTILAPGGLWGMEVCWQTK registered an amyloid nucleation score of 3.06 ± 0.12.

SLAWARISGVVAICTVGRGF gave an amyloid nucleation score of 7.44 ± 0.032.

The substance SHGCGHRL gave an amyloid nucleation score of -0.051 ± 0.79.

In turn, CFLVDFHVARSVDSYVELGS showed an amyloid nucleation score of -0.436 ± 1.1.

As for MTVDYLHRLCCMRPLYTSKN, the amyloid nucleation score entry is “inactive”.

In turn, LATLRLWVTCQRIGISRRKG displayed an amyloid nucleation score of 7.017 ± 0.037.

The substance SRIGLYIKCVVLDWRELNLS displayed an amyloid nucleation score of 0.206 ± 0.55.

Take PSQVL: the amyloid nucleation score is 0.992 ± 0.52.

In the case of SVVSGWWVIIFLYSHGVSIE, the amyloid nucleation score worked out at 0.093 ± 0.8.

The substance FLVFHPRDSMNI showed an amyloid nucleation score of 1.49 ± 0.44.

Substance RLENMCMASPR came in with an amyloid nucleation score of 0.464 ± 0.46.

In the case of SCDIKCWCQ, the amyloid nucleation score was determined as 3.41 ± 0.079.

With VVTKQMSRFS, the amyloid nucleation score was determined as 0.701 ± 0.51.

Substance SDLSKKSLLKVLMAS came in with an amyloid nucleation score of -0.375 ± 1.1.

PTMHVRVSG displayed an amyloid nucleation score of 0.495 ± 0.28.

In turn, GLRTLERSDVSVGVRRYLG yielded an amyloid nucleation score of 1.33 ± 0.51.

As to SILGVCSRLSYVRSVTFQGV, the amyloid nucleation score was 0.998 ± 0.61.

The substance NFDSYVYNVASVFYVVGLGV returned an amyloid nucleation score of 5.321 ± 0.048.

In the case of AWCFSWHQKLLAR, the amyloid nucleation score stood at 0.471 ± 0.36.

Consider DIWMAINVGAYGVCEFCVSR, for which the amyloid nucleation score is 5.88 ± 0.071.

The substance SFRSMIQQSAAGFYSSFIST had an amyloid nucleation score of -1.89 ± 1.1.

FINWHGMHSL yielded an amyloid nucleation score of 0.89 ± 0.16.

Substance SGIADEMGSRLTRKLVNRFY registered an amyloid nucleation score of -0.466 ± 0.55.

With GLLPVGSVGVRVALVVMRVQ, the amyloid nucleation score worked out at 1.35 ± 0.36.

In the case of FNIRSFICV, the amyloid nucleation score entry was “inactive”.

For the substance FEAFLSMWIFAPECLRAHSV, the amyloid nucleation score is -0.288 ± 1.1.

In the case of ISLDWAPN, the amyloid nucleation score entry is “inactive”.

In turn, EFCSYDGCYFIASMAFVDTR registered an amyloid nucleation score of -0.393 ± 1.1.

On to WGETVLYSDY, for which the amyloid nucleation score was -1.01 ± 1.

In the case of ADFTWVKSHVCHMEWSR, the amyloid nucleation score was 0.551 ± 0.42.

TGRFLEVREQRRDARVEMSR had an amyloid nucleation score of 0.183 ± 1.

Substance GTMCFFMCTDYLYGSQTRLG displayed an amyloid nucleation score of -0.054 ± 1.1.

With YQKCTRIFQILCGSACLKTR, the amyloid nucleation score is -0.649 ± 0.64.

The substance LYDGSVRQWTDEHWWVMSGG had an amyloid nucleation score of 0.988 ± 0.28.

SSPAACYMR had an amyloid nucleation score of -1.69 ± 1.1.

CRQISGNTNVRLGASSMRII came in with an amyloid nucleation score of -0.526 ± 0.55.

In turn, KCLSRNPHSIDFMRNARYKD returned an amyloid nucleation score of -0.92 ± 0.33.

The substance SGEGRLLVRWALVKVTEEKL showed an amyloid nucleation score of 0.907 ± 0.58.

In turn, SSSFFYTHVNHHLVLYDGKA came in with an amyloid nucleation score of -0.712 ± 1.1.

As to SEYALYAFE, the amyloid nucleation score is -0.173 ± 0.25.

On to FYSFLFFHPIGMFARVYKCF, for which the amyloid nucleation score result is “inactive”.

Consider FMDRFLSWFCHE, for which the amyloid nucleation score turned out to be 1.26 ± 0.37.

Substance ISHLRVLEQSLLAEWADNFP came in with an amyloid nucleation score of 2.08 ± 0.097.

Regarding VYCEDGY, the amyloid nucleation score came to 0.641 ± 0.36.

In the case of VVYDHILVAKFRAFVLGPFL, the amyloid nucleation score amounted to 4.07 ± 0.054.

Substance IILTVNRRMDLEGYFYFMFE yielded an amyloid nucleation score of -0.93 ± 1.

For the substance HGYSVFYAVYAEGEMNIINA, the amyloid nucleation score was -0.172 ± 1.1.

Substance QYCARAR returned an amyloid nucleation score of 1.87 ± 0.4.

VRCSVCVGACEHGPVN returned an amyloid nucleation score of 1.27 ± 0.61.

As for TGAGVNTGEFCWVDPRSDYQ, the amyloid nucleation score is -0.161 ± 1.1.

SECFRLSLRKGCNTNQVRNT had an amyloid nucleation score of -0.989 ± 0.63.

Substance MLFSRFRNICG yielded an amyloid nucleation score of -0.08 ± 1.

Turning to SSPLPQSCERNRVLRTRLGF, the amyloid nucleation score came to 0.874 ± 0.45.

Regarding KYMRLSLEDYNC, the amyloid nucleation score was determined as 0.533 ± 0.39.

As to VIDVKFVGYILQVYVGVSFG, the amyloid nucleation score came to 0.026 ± 1.1.

For CEDSCSSCNGILLDVREERS, the amyloid nucleation score is 1.89 ± 0.076.

SEAKGYLIWGFLWLFGYDFE had an amyloid nucleation score of -0.802 ± 0.63.

As to FDYLVNIRHGCTWCRTTI, the amyloid nucleation score is -0.108 ± 0.4.

The substance LVHMLCQ came in with an amyloid nucleation score of 0.893 ± 0.24.

In turn, ETRVITGDVSDRF displayed an amyloid nucleation score of 2.55 ± 0.091.

Consider GNIGYCKRSFSGLQLVGCAR, for which the amyloid nucleation score is -0.464 ± 0.78.

SLDGGPAVVEEATFRGSMAF registered an amyloid nucleation score of -0.567 ± 1.1.

VTTNWGSSVRNQAEGYRPSL had an amyloid nucleation score of -0.067 ± 0.42.

In turn, TYKFLSVFIDEFGQDFIMIW showed an amyloid nucleation score of -1.11 ± 0.43.
